The values that follow come from patent US9890400B2, “Method of production of 2,4-dihydroxybutyric acid” (ADISSEO FRANCE S.A.S., priority 2012, dated 2018).

Numbering of substitutions follows the chain as printed. In names and notes the source's numbering stands.

This assay can be described thus: Test for malate semialdehyde reductase (DHB dehydrogenase) activity. The class given is biochemical. The note with it: for Activity on malate semialdehyde (cofactor NADPH) / Activity on malate semialdehyde (cofactor NADH): 10 mM malate semialdehyde, 30° C., average of at least two experiments. As for the experimental part:
Test for Malate Semialdehyde Reductase Activity: (L)-Malate semialdehyde+NAD(P)H→(L)-2,4-dihydroxybutyric acid+NAD(P) Reaction scheme:
The assay mixture contained 200 mM Hepes (pH 7.5), 50 mM KCl, 5 mM MgCl2, 0.24 mM NADH or NADPH, and appropriate amounts of purified enzyme or cell extract. Reactions were started by adding 10 mM (L)-malate semialdehyde (malate semialdehyde was prepared freshly for each test, see Example 3). Enzymatic assays were carried out at 30° C. in 96-well flat bottomed microtiter plates in a final volume of 250 μL. The reactions were followed by the characteristic absorption of NAD(P)H at 340 nm (εNADPH=6.22 mM^−1 cm^−1) in a microplate reader (BioRad 680XR).

B1: YqhD: alcohol dehydrogenase of E. coli, SEQ ID No. 185 (protein, listed as Escherichia coli)
chain: MNNFNLHTPTRILFGKGAIAGLREQIPHDARVLITYGGGSVKKTGVLDQVLDALKGMDVLEFGGIEPNPAYETLMNAVKLVREQKVTFLLAVGGGSVLDGTKFIAAAANYPENIDPWHILQTGGKEIKSAIPMGCVLTLPATGSESNAGAVISRKTTGDKQAFHSAHVQPVFAVLDPVYTYTLPPRQVANGVVDAFVHTVEQYVTKPVDAKIQDRFAEGILLTLIEDGPKALKEPENYDVRANVMWAATQALNGLIGAGVPQDWATHMLGHELTAMHGLDHAQTLAIVLPALWNEKRDTKRAKLLQYAERVWNITEGSDDERIDAAIAATRNFFEQLGVPTHLSDYGLDGSSIPALLKKLEEHGMTQLGENHDITLDVSRRIYEAAR
Turning to B1, the “Activity on malate semialdehyde (cofactor NADPH)” value (shortened to “Activity … (cofactor NADPH)”) was 1.2 μmol/(min * mg_prot).

B2: H39R N43H: M. sedula succinic semialdehyde reductase double mutant H39R N43H, SEQ ID No. 36 (protein, listed as Metallosphaera sedula)
chain: MKAAVLHTYKEPLSIEDVNISQPKAGEVKIKVKATGLCRSDVHVFEGKTPVPPPVVAGHEISGIVEEVGPGVTRVKPGDRVISAFIHPCGKCGNCVAGKENLCETFSQVRLKGVMPDGTSRLSKDGKEIRTFLGGGFAEYAIVGENALTRVPEDMDLEKVAVLGCAGLTGYGAISSSKIEPGDTVAVIGVGGVGLSTIQLLRASGAGRIIAVGTKKWKLDRAMELGATDVVNSKEIDPVKAIKEITGGGPQVVIEAGGNEDTIHMALDSVRIGGKVVLVGLPPATAMIPIRVASIVRGGIEVVGNYGGRPRVDMPKLLELVRQGRYDPSRLVTGRFRLEEINEAVKMLEEGEAIRSLIIP
Take B2: the “affinity for malate semialdehyde compared to the wild type enzyme” value (in words) is “improved affinity”.

B3: Ms-SSR: succinic semialdehyde reductase from Metallosphaera sedula, SEQ ID No. 16 (protein, listed as Metallosphaera sedula)
chain: B2 chain with R39H, H43N
For the molecule B3, the “Activity on malate semialdehyde (cofactor NADH)” value is listed as 4.9 μmol/(min * mg_prot) and the “Activity … (cofactor NADPH)” value is recorded as 4.9 μmol/(min * mg_prot).

B4: 4hbdh: 4-hydroxybutyrate dehydrogenase of P. gingivalis, SEQ ID No. 187 (protein, listed as Porphyromonas gingivalis)
chain: MQLFKLKSVTHHFDTFAEFAKEFCLGERDLVITNEFIYEPYMKACQLPCHFVMQEKYGQGEPSDEMMNNILADIRNIQFDRVIGIGGGTVIDISKLFVLKGLNDVLDAFDRKIPLIKEKELIIVPTTCGTGSEVTNISIAEIKSRHTKMGLADDAIVADHAIIIPELLKSLPFHFYACSAIDALIHAIESYVSPKASPYSRLFSEAAWDIILEVFKKIAEHGPEYRFEKLGEMIMASNYAGIAFGNAGVGAVHALSYPLGGNYHVPHGEANYQFFTEVFKVYQKKNPFGYIVELNWKLSKILNCQPEYVYPKLDELLGCLLTKKPLHEYGMKDEEVRGFAESVLKTQQRLLANNYVELTVDEIEGIYRRLY
As for B4, the “Activity on malate semialdehyde (cofactor NADH)” value was 33 μmol/(min * mg_prot).

B5: YPR1: methylbutyraldehyde reductase from Saccharomyces cerevisiae, SEQ ID No. 14 (protein, listed as Saccharomyces cerevisiae)
chain: MPATLKNSSATLKLNTGASIPVLGFGTWRSVDNNGYHSVIAALKAGYRHIDAAAIYLNEEEVGRAIKDSGVPREEIFITTKLWGTEQRDPEAALNKSLKRLGLDYVDLYLMHWPVPLKTDRVTDGNVLCIPTLEDGTVDIDTKEWNFIKTWELMQELPKTGKTKAVGVSNFSINNIKELLESPNNKVVPATNQIEIHPLLPQDELIAFCKEKGIVVEAYSPFGSANAPLLKEQAIIDMAKKHGVEPAQLIISWSIQRGYVVLAKSVNPERIVSNFKIFTLPEDDFKTISNLSKVHGTKRVVDMKWGSFPIFQ
B5: the “Activity … (cofactor NADPH)” value is listed as 0.19 μmol/(min * mg_prot).
